The text below walks through data of patent US20220397533A1.

Test [1] addresses poly-L-lysine. The test is described as follows: SPR imaging, PLL-coated Al microarray, chemokines in PBS buffer; difference against CXCL10 as reference.
The target of test [2] is poly-L-lysine. In words: SPR imaging, PLL-coated Al microarray, chemokines spiked in artificial urine matrix; difference against CXCL10 as reference.
The target in test [3] is biotinylated bovine serum albumin (bovine) (UniProt P02769). The test is described as follows: SPR angular scanning on Al/Al2O3 film, streptavidin 500 µg/mL in 1xPBS buffer.
Sequence of biotinylated bovine serum albumin (bovine) (P02769 25-607 limits assumed, form in doubt): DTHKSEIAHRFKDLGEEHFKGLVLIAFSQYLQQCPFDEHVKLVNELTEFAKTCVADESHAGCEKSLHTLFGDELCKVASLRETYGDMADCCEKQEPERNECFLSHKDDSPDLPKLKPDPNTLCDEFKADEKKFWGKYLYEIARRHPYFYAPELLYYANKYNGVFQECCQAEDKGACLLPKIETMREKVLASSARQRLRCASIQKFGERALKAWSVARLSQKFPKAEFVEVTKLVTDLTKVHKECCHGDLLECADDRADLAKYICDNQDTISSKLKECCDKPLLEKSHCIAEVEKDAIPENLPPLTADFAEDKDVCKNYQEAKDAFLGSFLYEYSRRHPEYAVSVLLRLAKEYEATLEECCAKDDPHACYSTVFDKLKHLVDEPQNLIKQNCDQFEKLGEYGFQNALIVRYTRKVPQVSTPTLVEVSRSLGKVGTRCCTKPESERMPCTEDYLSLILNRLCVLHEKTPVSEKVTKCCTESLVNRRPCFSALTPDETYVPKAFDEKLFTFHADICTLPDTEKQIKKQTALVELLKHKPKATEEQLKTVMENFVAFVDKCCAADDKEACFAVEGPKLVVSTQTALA
Test [4] shares this target. In words: SPR angular scanning on Al/Al2O3 film, streptavidin 500 µg/mL spiked in undiluted human serum, serum-only control subtracted.

As for “CXCL8 (from UniProt P10145 29-99) (ligand)”, the values for the relative difference in response between CXCL10 and CXCL8 (kinetic reflectivity shift) in test [1] and in test [2] were 0.25% and 0.68%, respectively.

As to “streptavidin (from UniProt P22629 37-163)”, the figures for the specific binding signal (SPR angular shift) in test [3] and in test [4] were 0.21 ° and 0.17 °, respectively.
